# Measured values reported in patent US20110288036A1 (published 2011).
# Where no end group is shown, it is not given here.
# T1: MKK6 (Mitogen-Activated Protein Kinase Kinase) (UniProt P52564 1-334)
# T1 sequence: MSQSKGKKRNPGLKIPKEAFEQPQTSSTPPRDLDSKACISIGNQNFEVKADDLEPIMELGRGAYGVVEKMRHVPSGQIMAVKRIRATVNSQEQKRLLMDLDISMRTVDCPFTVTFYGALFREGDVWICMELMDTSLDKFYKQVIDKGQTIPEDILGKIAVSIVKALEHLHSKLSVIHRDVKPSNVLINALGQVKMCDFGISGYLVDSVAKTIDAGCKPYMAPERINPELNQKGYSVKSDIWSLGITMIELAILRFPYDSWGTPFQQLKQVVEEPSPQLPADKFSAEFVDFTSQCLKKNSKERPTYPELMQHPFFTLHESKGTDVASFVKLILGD
# T2: PRAK (p38-Regulated/Activated Protein Kinase) (UniProt Q8IW41 1-473)
# T2 sequence: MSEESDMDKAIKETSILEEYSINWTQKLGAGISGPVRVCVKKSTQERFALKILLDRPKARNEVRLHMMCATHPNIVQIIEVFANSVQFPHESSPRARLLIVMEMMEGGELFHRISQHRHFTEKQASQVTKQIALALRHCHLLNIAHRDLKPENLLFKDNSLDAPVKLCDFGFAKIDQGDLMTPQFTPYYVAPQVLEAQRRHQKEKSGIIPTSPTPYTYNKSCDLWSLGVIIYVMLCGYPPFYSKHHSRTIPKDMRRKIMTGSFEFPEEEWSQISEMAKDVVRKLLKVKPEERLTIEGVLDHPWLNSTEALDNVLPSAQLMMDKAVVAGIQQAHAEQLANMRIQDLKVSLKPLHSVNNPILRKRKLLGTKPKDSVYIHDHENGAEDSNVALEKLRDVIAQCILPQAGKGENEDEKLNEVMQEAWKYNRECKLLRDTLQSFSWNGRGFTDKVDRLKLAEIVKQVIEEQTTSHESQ
# T3: MKK4 (Mitogen-Activated Protein Kinase Kinase 4) (UniProt P45985 1-399)
# T3 sequence: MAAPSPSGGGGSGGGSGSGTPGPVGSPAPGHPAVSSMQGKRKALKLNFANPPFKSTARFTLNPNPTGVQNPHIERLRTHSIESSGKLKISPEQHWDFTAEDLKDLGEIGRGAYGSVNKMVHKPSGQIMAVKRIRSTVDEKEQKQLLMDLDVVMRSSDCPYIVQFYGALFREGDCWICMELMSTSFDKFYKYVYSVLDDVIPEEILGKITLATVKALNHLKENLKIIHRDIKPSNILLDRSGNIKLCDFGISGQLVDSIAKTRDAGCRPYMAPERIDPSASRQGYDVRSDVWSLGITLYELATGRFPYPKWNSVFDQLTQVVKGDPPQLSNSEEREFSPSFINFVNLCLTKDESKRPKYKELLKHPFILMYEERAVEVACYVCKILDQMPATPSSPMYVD
# Columns and labels:
# Assay in all cases: cell-based or functional assay
# [1] = molecular target: T1, MKK6 (Mitogen-Activated Protein Kinase …)
# [2] = molecular target: JNK (c-Jun N-terminal Kinase)
# MEK1 = MEK1 (UniProt Q02750 1-393)
# [3] = molecular target: T2, PRAK (p38-Regulated/Activated Protein …)
# [4] = molecular target: p38 MAPK (p38 Mitogen-Activated Protein Kinase)
# [5] = molecular target: T3, MKK4 (Mitogen-Activated Protein Kinase …)
binder,measurement,setting,value
YARAAARQARAKALARQLGVAA (not fully specified (C-terminus)) [MMI-0100 (YARAAARQARAKALARQLGVAA; SEQ ID NO: 1)],"Percent Activity (radiometric kinase assay, 100 µM peptide)",[1],50 percent activity
same,"Percent Activity (radiometric kinase assay, 100 µM peptide)",[2],92 percent activity
same,"Percent Activity (radiometric kinase assay, 100 µM peptide)",MEK1,68 percent activity
same,"Percent Activity (radiometric kinase assay, 100 µM peptide)",[3],100 percent activity
same,"Percent Activity (radiometric kinase assay, 100 µM peptide)",[4],60 percent activity
same,"Percent Activity (radiometric kinase assay, 100 µM peptide)",[5],90 percent activity
